This note sets out measurements from paper PMC9680610.

This test deals with angiotensin-converting enzyme-2 (ACE2) with the neck domain (UniProt Q9BYF1). The test is described as follows: mass photometry; proteins measured alone, non-labelled, in solution; counts of monomer, dimer and trimer species; ACE2 at 10 nM.

As a reminder, the stoichiometry N is the number of molecules, sites or subunits per partner or assembly. Turning to “angiotensin-converting enzyme-2 (ACE2) with the neck domain (from UniProt Q9BYF1 18-740) (receptor)”, the stoichiometry N amounted to 2.
